# Results from the Immune Epitope Database (IEDB).
# Assays:
# Assay in all cases: IEDB peptide-MHC binding, purified MHC/competitive/radioactivity; filed as Kd, often an IC50 or EC50 that approximates it; ≥ and ≤ were set here for values at or beyond the usual limits of such assays
# [1] = biological target: HLA-A*03:01
# [2] = biological target: HLA-A*11:01
# [3] = biological target: HLA-A*31:01
# [4] = biological target: HLA-A*33:01
# [5] = biological target: HLA-A*68:01
# [6] = source organism: SARS coronavirus Tor2
# [7] = source organism: Dengue virus 2 Jamaica/1409/1983
# [8] = source organism: Dengue virus 1 Brazil/97-11/1997
# [9] = source organism: Dengue virus 4 Philippines/H241/1956
# [10] = source organism: Vaccinia virus WR
# [11] = source organism: Mammarenavirus machupoense
# [12] = source organism: Dengue virus 3 Martinique/1243/1999
# [13] = source organism: Mammarenavirus brazilense
# [14] = source organism: Triticum aestivum
sequence,measurement,setting,value
AAYYFMKFR,Kd,[1]; [6],0.124 µM
same,Kd,[2]; [6],0.0472 µM
same,Kd,[3]; [6],0.00123 µM
same,Kd,[4]; [6],0.117 µM
same,Kd,[5]; [6],0.0154 µM
AINVLRGFR,Kd,[3]; [7],0.00372 µM
ALCTLLHLHR,Kd,[1]; [6],0.301 µM
same,Kd,[2]; [6],0.47 µM
same,Kd,[3]; [6],0.051 µM
same,Kd,[4]; [6],0.401 µM
same,Kd,[5]; [6],3.41 µM
ALFLEEMLR,Kd,[1]; [7],0.304 µM
ALSEAREHLK,Kd,[1]; [6],0.0806 µM
same,Kd,[2]; [6],0.141 µM
same,Kd,[3]; [6],5.32 µM
same,Kd,[4]; [6],≥ 70 µM
same,Kd,[5]; [6],2.96 µM
ASCDAIMTR,Kd,[1]; [6],19.4 µM
same,Kd,[2]; [6],0.0794 µM
same,Kd,[3]; [6],0.0813 µM
same,Kd,[4]; [6],0.0835 µM
same,Kd,[5]; [6],1.44 µM
ATTFVTPMLR,Kd,[2]; [7],0.0952 µM
same,Kd,[3]; [7],0.0911 µM
same,Kd,[5]; [7],0.0162 µM
CTLPPLRFR,Kd,[3]; [8],≥ 77.9 µM
same,Kd,[4]; [8],0.00413 µM
CTLPPLRYR,Kd,[3]; [7],0.0029 µM
same,Kd,[4]; [7],0.0121 µM
CVYNMMGKR,Kd,[1]; [9],0.0634 µM
same,Kd,[3]; [9],0.137 µM
same,Kd,[5]; [9],0.117 µM
DMQKFTILEY,Kd,[1]; [10],≥ 53.5 µM
same,Kd,[2]; [10],3.53 µM
same,Kd,[3]; [10],≥ 70 µM
same,Kd,[4]; [10],≥ 70 µM
same,Kd,[5]; [10],≥ 24.5 µM
DSEPISILDR,Kd,[1]; [10],≥ 70.1 µM
same,Kd,[2]; [10],≥ 61.4 µM
same,Kd,[3]; [10],≥ 52.8 µM
same,Kd,[4]; [10],4.62 µM
same,Kd,[5]; [10],0.518 µM
DTIVSRSSR,Kd,[1]; [10],≥ 78 µM
same,Kd,[2]; [10],≥ 77.9 µM
same,Kd,[3]; [10],1.41 µM
same,Kd,[4]; [10],0.00571 µM
same,Kd,[5]; [10],0.00579 µM
DTSECPNERR,Kd,[5]; [9],0.124 µM
DVSLIIEYK,Kd,[1]; [10],16.1 µM
same,Kd,[2]; [10],0.152 µM
same,Kd,[3]; [10],0.0722 µM
same,Kd,[4]; [10],0.111 µM
same,Kd,[5]; [10],0.00357 µM
EAVYGNIKHK,Kd,[1]; [10],18.7 µM
same,Kd,[2]; [10],11.7 µM
same,Kd,[3]; [10],13.9 µM
same,Kd,[4]; [10],≥ 70 µM
same,Kd,[5]; [10],0.0623 µM
EKFGHFCKYH,Kd,[1]; [11],≥ 70 µM
same,Kd,[2]; [11],≥ 69.7 µM
same,Kd,[3]; [11],≥ 32.8 µM
same,Kd,[4]; [11],≥ 70 µM
same,Kd,[5]; [11],≥ 70.1 µM
ELTTVFIKY,Kd,[1]; [10],0.269 µM
same,Kd,[2]; [10],6.69 µM
same,Kd,[3]; [10],1.82 µM
same,Kd,[4]; [10],5.45 µM
same,Kd,[5]; [10],0.855 µM
ENMEVEIWTR,Kd,[4]; [9],0.106 µM
EQLQLLMPLK,Kd,[1]; [6],1.2 µM
same,Kd,[2]; [6],0.15 µM
same,Kd,[3]; [6],2.94 µM
same,Kd,[4]; [6],2.37 µM
same,Kd,[5]; [6],1.79 µM
ESALNDTWK,Kd,[5]; [7],0.0905 µM
ETCVYNMMGK,Kd,[2]; [7],1.17 µM
same,Kd,[5]; [7],0.0191 µM
FFLRKLTSR,Kd,[3]; [12],0.0477 µM
same,Kd,[4]; [12],0.0466 µM
FFLSGRGLGK,Kd,[1]; source organism: Dengue virus 1 Nauru/West Pac/1974,0.012 µM
FFTELENKK,Kd,[1]; [10],≥ 78 µM
same,Kd,[2]; [10],6.19 µM
same,Kd,[3]; [10],≥ 25.7 µM
same,Kd,[4]; [10],≥ 30.9 µM
same,Kd,[5]; [10],3.36 µM
FSGKSTELIR,Kd,[1]; [10],≥ 38.1 µM
same,Kd,[2]; [10],17.1 µM
same,Kd,[3]; [10],1.92 µM
same,Kd,[4]; [10],1.79 µM
same,Kd,[5]; [10],0.881 µM
FTTSLSLHK,Kd,[1]; [6],1.35 µM
same,Kd,[2]; [6],0.181 µM
same,Kd,[3]; [6],2.86 µM
same,Kd,[4]; [6],1.13 µM
same,Kd,[5]; [6],0.271 µM
GLCAHILLY,Kd,[1]; [10],0.014 µM
same,Kd,[2]; [10],0.0375 µM
same,Kd,[3]; [10],18 µM
same,Kd,[4]; [10],8.36 µM
same,Kd,[5]; [10],3.2 µM
GLYGNGVVTK,Kd,[1]; [12],0.00365 µM
GSFQEFRSNH,Kd,[1]; [13],≥ 28.7 µM
same,Kd,[2]; [13],7.13 µM
same,Kd,[3]; [13],1.52 µM
same,Kd,[4]; [13],≥ 45.2 µM
same,Kd,[5]; [13],≥ 70.1 µM
GVCGIRSTTR,Kd,[3]; [12],0.0272 µM
HAIILHQQQK,Kd,[1]; [14],1.27 µM
same,Kd,[2]; [14],1.13 µM
same,Kd,[3]; [14],11 µM
same,Kd,[4]; [14],≥ 44.4 µM
same,Kd,[5]; [14],0.0104 µM
IAEYIAGLK,Kd,[1]; [10],0.0633 µM
same,Kd,[2]; [10],0.147 µM
same,Kd,[3]; [10],8.07 µM
same,Kd,[4]; [10],1.32 µM
same,Kd,[5]; [10],0.00127 µM
IFLRKLTSR,Kd,[3]; [9],0.039 µM
same,Kd,[4]; [9],0.108 µM
IFMRDWNSKY,Kd,[1]; [10],≥ 33.3 µM
same,Kd,[2]; [10],≥ 20.5 µM
same,Kd,[3]; [10],2.48 µM
same,Kd,[4]; [10],13.7 µM
same,Kd,[5]; [10],10.9 µM
ILNKIVQLPK,Kd,[1]; [10],0.0173 µM
same,Kd,[2]; [10],0.289 µM
same,Kd,[3]; [10],2.07 µM
same,Kd,[4]; [10],≥ 70 µM
same,Kd,[5]; [10],8.3 µM
IQLDEKSSIK,Kd,[1]; [10],0.00125 µM
same,Kd,[2]; [10],0.00457 µM
same,Kd,[3]; [10],0.0811 µM
same,Kd,[4]; [10],≥ 70 µM
same,Kd,[5]; [10],0.551 µM
ISELSRLRY,Kd,[1]; [10],6.57 µM
same,Kd,[2]; [10],10.8 µM
same,Kd,[3]; [10],5.37 µM
same,Kd,[4]; [10],≥ 77.7 µM
same,Kd,[5]; [10],≥ 22.7 µM
ISQFSYKELY,Kd,[1]; [10],5.72 µM
same,Kd,[2]; [10],1.25 µM
same,Kd,[3]; [10],9.58 µM
same,Kd,[4]; [10],≥ 46.8 µM
same,Kd,[5]; [10],7.76 µM
KAIKILTGFR,Kd,[3]; [9],0.00775 µM
KIIETYLGR,Kd,[1]; [10],≥ 78 µM
same,Kd,[2]; [10],≥ 77.9 µM
same,Kd,[3]; [10],≥ 77.9 µM
same,Kd,[4]; [10],≥ 77.7 µM
same,Kd,[5]; [10],≥ 77.7 µM
KLKPRWLDAR,Kd,[3]; [7],0.00139 µM
KLLQTLVLK,Kd,[1]; [6],0.863 µM
same,Kd,[2]; [6],1.07 µM
same,Kd,[3]; [6],2.48 µM
same,Kd,[4]; [6],≥ 44.9 µM
same,Kd,[5]; [6],≥ 39.4 µM
KLSAGVEFLK,Kd,[1]; [6],0.0149 µM
same,Kd,[2]; [6],0.0279 µM
same,Kd,[3]; [6],0.516 µM
same,Kd,[4]; [6],6.1 µM
same,Kd,[5]; [6],0.101 µM
